The results in this text go back to article PMC11806408 (2025).

This assay deals with fibrillin‐1 fragment start‐EGF4 (UniProt P35555 45-287). As to the kind of experiment: SPR. A general note: SPR reads the build-up and loss of mass on a sensor chip optically.

As usually defined, the Kd is the concentration at which binding is half-saturated. A lower Kd goes with higher affinity.

Sequence of fibrillin‐1 fragment start‐EGF4 (P35555 45-287): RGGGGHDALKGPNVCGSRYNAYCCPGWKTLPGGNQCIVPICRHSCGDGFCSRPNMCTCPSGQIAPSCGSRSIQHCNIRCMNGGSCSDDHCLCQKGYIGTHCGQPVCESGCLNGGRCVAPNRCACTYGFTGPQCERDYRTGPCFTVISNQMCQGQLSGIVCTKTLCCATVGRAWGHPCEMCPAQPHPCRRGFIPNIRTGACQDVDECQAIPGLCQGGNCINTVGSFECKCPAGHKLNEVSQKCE

B1: processed BMP‐10 CPLX (tag‐free, HEK293) (complex)
chain 1: SPIMNLEQSPLEEDMSLFGDVFSEQDGVDFNTLLQSMKDEFLKTLNLSDIPTQDSAKVDPPEYMLELYNKFATDRTSMPSANIIRSFKNEDLFSQPVSFNGLRKYPLLFNVSIPHHEEVIMAELRLYTLVQRDRMIYDGVDRKITIFEVLESKGDNEGERNMLVLVSGEIYGTNSEWETFDVTDAIRRWQKSGSSTHQLEVHIESKHDEAEDASSGRLEIDTSAQNKHNPLLIVFSDDQSSDKERKEELNEMISHEQLPELDNLGLDSFSSGPGEEALLQMRSNIIYDSTARIRR
chain 2: NAKGNYCKRTPLYIDFKEIGWDSWIIAPPGYEAYECRGVCNYPLAEHLTPTKHAIIQALVHLKNSQKASKACCVPTKLEPISILYLDKGVVTYKFKYEGMAVSECGCR
modifications: N‐glycosylation
As for B1, the Kd was found to be 14.4 nM.
